As a reminder, the Kd is the free concentration of one partner at which half of the binding sites on the other are occupied at equilibrium, for simple one-to-one binding. Read a high Kd as lower affinity.

We go through one molecule from publication PMC11063343 (Frontiers in Cellular and Infection Microbiology, 2024).

No end group written: not given here. *: point of attachment. Biotin = O=C1N[C@H]2[C@H](CS[C@H]2CCCCC(=O)*)N1

For this assay, the target named is T1, full length SARS-CoV-2 spike protein (SARS-CoV-2, UniProt P0DTC2).
T1 construct: source: bought: ACROBiosystems
In words: SPR. The conditions noted are these: both partners purified.

The molecule Biotin-MYCVFNRNEDACRYG (cysteine pairing not given here) [cellugyrin Inner loop 1A peptide] came in with a Kd of 4.53 mM.
